Assay [1] concerns the target T1, human Nectin-4 on cells (CHO cells transfected with human Nectin-4 cDNA); SUM190 tumor cells; normal … (human, UniProt Q96NY8 32-510).
T1 chain: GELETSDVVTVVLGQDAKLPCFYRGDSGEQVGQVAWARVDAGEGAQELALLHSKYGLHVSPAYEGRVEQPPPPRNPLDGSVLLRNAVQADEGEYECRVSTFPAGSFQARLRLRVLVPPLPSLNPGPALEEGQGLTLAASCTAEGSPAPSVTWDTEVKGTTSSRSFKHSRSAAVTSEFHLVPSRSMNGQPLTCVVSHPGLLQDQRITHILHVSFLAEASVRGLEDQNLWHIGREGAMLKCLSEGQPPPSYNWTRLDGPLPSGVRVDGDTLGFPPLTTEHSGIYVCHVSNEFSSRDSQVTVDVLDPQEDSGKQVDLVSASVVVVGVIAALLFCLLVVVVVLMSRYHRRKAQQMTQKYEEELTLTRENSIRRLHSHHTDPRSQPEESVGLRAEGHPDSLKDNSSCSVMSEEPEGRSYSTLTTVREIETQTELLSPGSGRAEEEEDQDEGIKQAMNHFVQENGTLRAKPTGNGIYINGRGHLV
The assay is described as follows: flow cytometry, transfected CHO cells.

In assay [2] the target is Mouse N4. Nature of the assay: flow cytometry, transfected CHO cells; ambiguous fit.
The target in assay [3] is Rat N4. Described as above.
In assay [4] the target is Monkey N4. The assay is described as follows: flow cytometry, transfected CHO cells.
For assay [5], the target named is Mouse N4. The assay is described as follows: flow cytometry, transfected CHO cells.
In assay [6] the target is Rat N4. Nature of the assay: flow cytometry, transfected CHO cells.
The target in assay [7] is T1, human Nectin-4 on cells (CHO cells …). The assay is described as follows: flow.

B1: Ch-3A1.4 (antibody, V domains shown)
VH: DVQLQESGPSLVKPSQTLSLTCSVTGDSITSGYWNWIRKFPGNKLEYMGYISNSGITYYNPSLKSRISITRDTSKNQYFLQLNSVTAEDTATYYCTRFGSTMILYYTMDYWGQGTSVTVSS
VL: DIVMTQSPVTLSVTPGDRVSLSCRASQSISDYLHWYQQKSQESPRLLIKYASKSISGIPSRFSGSGSGSNFTLSINSVEPEDVGVYYCQNGHSFPLTFGAGTKLELK
Regarding B1, in assay [1], the midpoint of the response, the EC50, lay at 2.83 nM.

B2: Ch-15A7.5 (antibody, V domains shown)
VH: EVKLVESGGGLVQPGGSRKLSCAASGFTFSNYGMAWVRQAPGKGPEWVAFISNLAYGINYADTVTGRFTISRENAKNTLYLEMRSLRSEDTAMYYCARGARATGWFAYWGQGTLVTVSA
VL: DIVMTQSQKFMSTSIGDRVSVTCKASQNVDTHVAWYQEKPGQSPKALIYSASYRYSGVPDRFTGSGSGTDFTLTISNVQSEDLADYFCQQYNSYPLTFGGGTKLEIK
Regarding B2, the half-maximal effective concentration (EC50) is about 31.2 nM in assay [2], about 5.16 nM in assay [3] and 1.22 nM in assay [4].

B3: Ch-15A7.5 (chimeric anti-Nectin-4 monoclonal antibody 15A7.5) (antibody, V domains shown)
VH: EVKLVESGGGLVQPGGSRKLSCAASGFTFSNYGMAWVRQAPGKGPEWVAFISNLAYGINYADTVTGRFTISRENAKNTLYLEMRSLRSEDTAMYYCARGARATGWFAYWGQGTLVTVSA
VL: DIVMTQSQKFMSTSIGDRVSVTCKASQNVDTHVAWYQEKPGQSPKALIYSASYRYSGVPDRFTGSGSGTDFTLTISNVQSEDLADYFCQQYNSYPLTFGGGTKLEIK
Regarding B3, in assay [1], a half-maximal response (EC50) required 0.692 nM.

B4: HA22 (antibody, V domains shown)
VH: EVQLVESGGGLVQPGGSLRLSCAASGFTFSSYNMNWVRQAPGKGLEWVSYISSSSSTIYYADSVKGRFTISRDNAKNSLSLQMNSLRDEDTAVYYCARAYYYGMDVWGQGTTVTVSS
VL: DIQMTQSPSSVSASVGDRVTITCRASQGISGWLAWYQQKPGKAPKFLIYAASTLQSGVPSRFSGSGSGTDFTLTISSLQPEDFATYYCQQANSFPPTFGGGTKVEIK
With B4, the EC50 is 0.0678 nM in assay [4], 41.1 nM in assay [5] and 0.097 nM in assay [6].

B5: HA22 (Enfortumab), human monoclonal anti-Nectin-4 antibody (antibody, V domains shown)
VH: EVQLVESGGGLVQPGGSLRLSCAASGFTFSSYNMNWVRQAPGKGLEWVSYISSSSSTIYYADSVKGRFTISRDNAKNSLSLQMNSLRDEDTAVYYCARAYYYGMDVWGQGTTVTVSS
VL: DIQMTQSPSSVSASVGDRVTITCRASQGISGWLAWYQQKPGKAPKFLIYAASTLQSGVPSRFSGSGSGTDFTLTISSLQPEDFATYYCQQANSFPPTFGGGTKVEIK
B5 registered an EC50 in assay [7] of 0.346 nM.

B6: Ch-5A12.2 (antibody, V domains shown)
VH: QIQLQQSGAELVKPGASVTLSCKTSGFTFNSMYISWLKQKPGQSLEWIAWIYAGTGGTRFNQKFTGKVQLTVDTSSSTAYMQFSSLTTDDSAIYYCAIRSGFVPMDYWGQGTSVTVSS
VL: SIVMTQTPKFLLVSAGDRVTITCKASQSVSNDVAWYQQKPGQSPKLLIYYASNRYTGVPDRFTGSGYGTDFTFTISTVQAEDLAVYFCQQDYSSPWTFGGGTKLEIK
Consider B6, for which the results for the EC50 in assay [2], in assay [4] and in assay [6] were about 205 nM, 0.134 nM and 0.478 nM, respectively.

B7: Ch-5A12.2 (chimeric anti-Nectin-4 monoclonal antibody 5A12.2) (antibody, V domains shown)
VH: QIQLQQSGAELVKPGASVTLSCKTSGFTFNSMYISWLKQKPGQSLEWIAWIYAGTGGTRFNQKFTGKVQLTVDTSSSTAYMQFSSLTTDDSAIYYCAIRSGFVPMDYWGQGTSVTVSS
VL: SIVMTQTPKFLLVSAGDRVTITCKASQSVSNDVAWYQQKPGQSPKLLIYYASNRYTGVPDRFTGSGYGTDFTFTISTVQAEDLAVYFCQQDYSSPWTFGGGTKLEIK
B7 gave an EC50 in assay [1] of 0.37 nM.
